Targets include CD31 (mouse) (UniProt Q08481); F4/80 (mouse) (UniProt Q61549); collagen IIIa (mouse) (UniProt P08121).
Common to all, as to test: IF colocalization (JACoP) of VT680 phage with marker, CP mouse pancreas sections
Assay [1] deals with carboxypeptidase A1 (CPA1) (mouse) (UniProt Q7TPZ8).
Assay [2] concerns the target cytokeratin 7 (CK-7) (mouse) (UniProt Q9DCV7).
UniProt Q9DCV7, sequence (Q9DCV7 2-457): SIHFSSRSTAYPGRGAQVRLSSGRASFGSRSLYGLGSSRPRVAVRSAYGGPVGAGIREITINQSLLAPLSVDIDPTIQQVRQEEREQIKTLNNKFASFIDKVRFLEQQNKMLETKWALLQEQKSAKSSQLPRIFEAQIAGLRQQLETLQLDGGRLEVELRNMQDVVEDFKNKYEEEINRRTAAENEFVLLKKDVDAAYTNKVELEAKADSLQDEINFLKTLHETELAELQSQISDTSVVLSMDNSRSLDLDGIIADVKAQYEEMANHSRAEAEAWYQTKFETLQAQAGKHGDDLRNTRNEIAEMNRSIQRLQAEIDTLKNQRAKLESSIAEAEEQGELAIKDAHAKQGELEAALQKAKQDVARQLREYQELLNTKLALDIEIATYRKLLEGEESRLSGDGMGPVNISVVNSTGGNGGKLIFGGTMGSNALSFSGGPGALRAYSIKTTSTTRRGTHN

UniProt Q08481, sequence (Q08481 18-727): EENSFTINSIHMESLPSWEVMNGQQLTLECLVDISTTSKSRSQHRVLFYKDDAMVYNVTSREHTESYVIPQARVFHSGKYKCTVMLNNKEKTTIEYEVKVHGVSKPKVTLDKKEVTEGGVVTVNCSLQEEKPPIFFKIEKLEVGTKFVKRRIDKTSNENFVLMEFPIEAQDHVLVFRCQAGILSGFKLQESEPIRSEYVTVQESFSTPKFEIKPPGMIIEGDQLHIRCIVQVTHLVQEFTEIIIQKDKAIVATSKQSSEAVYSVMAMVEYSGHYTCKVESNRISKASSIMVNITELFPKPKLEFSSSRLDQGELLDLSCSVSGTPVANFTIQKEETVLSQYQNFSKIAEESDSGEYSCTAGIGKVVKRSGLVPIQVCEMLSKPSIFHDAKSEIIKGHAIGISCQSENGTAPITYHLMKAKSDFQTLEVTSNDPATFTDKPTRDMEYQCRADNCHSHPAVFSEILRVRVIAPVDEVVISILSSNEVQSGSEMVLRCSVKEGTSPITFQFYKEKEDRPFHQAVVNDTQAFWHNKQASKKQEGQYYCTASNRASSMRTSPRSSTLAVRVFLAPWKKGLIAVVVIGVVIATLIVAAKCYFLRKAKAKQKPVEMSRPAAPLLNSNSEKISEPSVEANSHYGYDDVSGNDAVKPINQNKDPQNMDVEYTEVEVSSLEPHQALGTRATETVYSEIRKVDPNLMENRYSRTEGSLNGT
UniProt Q7TPZ8, sequence (Q7TPZ8 111-419): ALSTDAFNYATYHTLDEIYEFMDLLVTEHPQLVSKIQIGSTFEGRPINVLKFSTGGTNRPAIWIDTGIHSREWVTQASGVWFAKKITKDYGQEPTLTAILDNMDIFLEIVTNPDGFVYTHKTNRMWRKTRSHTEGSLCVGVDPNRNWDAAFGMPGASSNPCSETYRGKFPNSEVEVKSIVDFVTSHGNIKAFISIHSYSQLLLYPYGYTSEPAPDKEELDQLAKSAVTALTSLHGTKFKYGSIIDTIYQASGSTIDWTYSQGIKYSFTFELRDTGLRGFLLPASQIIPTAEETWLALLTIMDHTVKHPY
UniProt Q61549, sequence (Q61549 28-931): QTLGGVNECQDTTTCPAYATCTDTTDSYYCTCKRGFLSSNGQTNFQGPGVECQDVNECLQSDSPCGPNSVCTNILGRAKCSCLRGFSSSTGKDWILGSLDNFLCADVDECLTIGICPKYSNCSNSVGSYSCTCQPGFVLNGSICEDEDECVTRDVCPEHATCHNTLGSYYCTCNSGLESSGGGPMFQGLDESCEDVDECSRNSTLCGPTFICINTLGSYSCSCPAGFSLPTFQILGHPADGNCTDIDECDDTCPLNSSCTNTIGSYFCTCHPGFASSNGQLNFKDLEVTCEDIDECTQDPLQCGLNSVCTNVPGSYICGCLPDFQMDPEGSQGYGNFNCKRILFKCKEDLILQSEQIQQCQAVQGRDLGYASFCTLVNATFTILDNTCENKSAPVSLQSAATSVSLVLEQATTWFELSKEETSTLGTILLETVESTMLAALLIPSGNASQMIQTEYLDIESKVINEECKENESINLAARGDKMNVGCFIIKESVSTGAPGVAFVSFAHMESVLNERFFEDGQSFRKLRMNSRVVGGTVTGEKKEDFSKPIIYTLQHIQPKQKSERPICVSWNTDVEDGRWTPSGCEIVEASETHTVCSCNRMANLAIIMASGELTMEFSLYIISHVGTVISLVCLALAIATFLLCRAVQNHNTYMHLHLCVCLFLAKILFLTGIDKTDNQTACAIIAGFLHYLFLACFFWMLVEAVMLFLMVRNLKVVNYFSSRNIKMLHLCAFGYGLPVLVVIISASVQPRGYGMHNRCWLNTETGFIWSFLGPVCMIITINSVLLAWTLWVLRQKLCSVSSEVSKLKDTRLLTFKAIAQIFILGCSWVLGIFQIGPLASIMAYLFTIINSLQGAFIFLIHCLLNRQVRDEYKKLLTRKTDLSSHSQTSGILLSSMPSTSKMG
UniProt P08121, sequence (P08121 155-1219): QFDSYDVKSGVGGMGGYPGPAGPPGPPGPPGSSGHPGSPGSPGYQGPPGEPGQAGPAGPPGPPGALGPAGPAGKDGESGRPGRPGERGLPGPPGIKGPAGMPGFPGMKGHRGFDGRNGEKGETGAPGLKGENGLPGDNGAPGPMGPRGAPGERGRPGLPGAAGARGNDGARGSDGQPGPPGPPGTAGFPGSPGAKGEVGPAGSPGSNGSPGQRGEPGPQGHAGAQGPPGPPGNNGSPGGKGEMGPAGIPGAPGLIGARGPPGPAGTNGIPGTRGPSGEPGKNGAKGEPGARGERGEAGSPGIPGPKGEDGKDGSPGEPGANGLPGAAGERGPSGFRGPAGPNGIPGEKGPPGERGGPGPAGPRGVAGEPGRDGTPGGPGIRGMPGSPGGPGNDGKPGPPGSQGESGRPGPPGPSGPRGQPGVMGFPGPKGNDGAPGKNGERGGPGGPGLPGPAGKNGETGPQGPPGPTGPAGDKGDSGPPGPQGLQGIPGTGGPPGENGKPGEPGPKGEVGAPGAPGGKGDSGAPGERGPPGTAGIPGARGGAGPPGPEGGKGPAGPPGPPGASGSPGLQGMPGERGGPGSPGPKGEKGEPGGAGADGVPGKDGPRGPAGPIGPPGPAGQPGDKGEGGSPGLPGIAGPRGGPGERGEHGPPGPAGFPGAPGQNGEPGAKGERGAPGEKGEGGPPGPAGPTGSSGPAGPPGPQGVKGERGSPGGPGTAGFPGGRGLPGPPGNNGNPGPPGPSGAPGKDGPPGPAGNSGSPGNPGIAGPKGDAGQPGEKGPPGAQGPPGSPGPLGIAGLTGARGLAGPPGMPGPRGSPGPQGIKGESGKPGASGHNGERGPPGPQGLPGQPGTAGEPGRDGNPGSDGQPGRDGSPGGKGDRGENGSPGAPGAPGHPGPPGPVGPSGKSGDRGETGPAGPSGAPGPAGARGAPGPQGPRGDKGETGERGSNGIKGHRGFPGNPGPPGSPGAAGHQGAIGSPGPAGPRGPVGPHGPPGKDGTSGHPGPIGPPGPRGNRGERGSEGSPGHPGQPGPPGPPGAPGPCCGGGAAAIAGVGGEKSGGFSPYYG

In the case of “SLTNSSF (SEQ ID NO: 27) phage clone (peptide)”, the mean Manders' correlation coefficient (MCC), fraction of phage overlapping cell marker in the assay with CD31 (mouse) amounted to 0.13; with F4/80 (mouse) it was 0.8; in assay [1], 0.22; with collagen IIIa (mouse), 0.33; in assay [2], 0.11.

For the origin of these results see US20240115729A1, “COMPOSITIONS AND METHODS FOR TARGETED ANTIFIBROTIC THERAPY IN CHRONIC PANCREATITIS” (University of Virginia Patent Foundation, priority 2021, published 2024).
